Assay in all cases: cell-based or functional assay
In test [1] the target is GLP-1 receptor.
Test [2] concerns the target GLP-1 receptor. The source holds these as a separate data set.
Another test concerns the target glucagon receptor.

Like-named read-outs stand apart in the source and are kept apart here. A value given as a limit tells only on which side of the number the result lay.

Regarding GLP-1 (peptide), the cAMP Induction, EC50 (luciferase reporter, HEK293) was 0.04 nM with GLP-1 receptor [1], 0.05 nM with GLP-1 receptor [2] and over 1000 nM with glucagon receptor.

Values taken from patent publication US20120196804A1.
